# Test results reported in patent US10434147B2, “Treatment type 2 diabetes mellitus patients” (Sanofi-Aventis Deutschland GmbH, priority 2015, dated 2019).
# Marks after values point to notes of the source that are not given here.
# What was measured:
# Assay type in all cases: in vivo, human
# [1] = tested on: Patients with Type 2 Diabetes Insufficiently Controlled with Insulin Glargine with or without Metformin; assay: HbA1c, randomized open-label active-controlled 3-arm 26-week study (GetGoal-Duo2)
# Description: (§1) FIG. 6—Graphical study design. ^1 Insulin glargine should be injected subcutaneously once daily at dinner or breakfast time (according to patient's/investigators' preference). […] Meal used for insulin glulisine dosing should remain the same throughout the 26-week treatment period. ^4 Injection of insulin glulisine prior to breakfast, lunch and dinner.
# (§2) Co-primary endpoints at 26 weeks were (1) non-inferiority (95% CI upper bound <0.4%) in HbA1c reduction with LIXI vs GLU-1 and (2) for LIXI vs GLU-3, either non-inferiority in HbA1c reduction (2a) OR superiority (one-sided α≤0.025) in body weight change (2b). FPG, PPG, IG dose, composite outcomes, AEs, and hypoglycemia were assessed.
# [2] = tested on: Patients with Type 2 Diabetes Insufficiently Controlled with Insulin Glargine with or without Metformin; assay: Body weight, 26-week study
# Description: as §1, §2
# [3] = tested on: Patients with Type 2 Diabetes Insufficiently Controlled with Insulin Glargine with or without Metformin; assay: 2-h PPG post test meal, 26-week study; details: subset of mITT treated before breakfast
# Experimental: as §2
# [4] = tested on: Patients with Type 2 Diabetes Insufficiently Controlled with Insulin Glargine with or without Metformin; assay: Treatment-emergent adverse events, 26-week study
# Description: as §1, §2
# [5] = Baseline (before IMP), mITT population
# [6] = Week 26 (LOCF), mITT population
# [7] = Week 26 (LOCF), mITT, Example 2 table
# [8] = Safety population, PT ≥ 3% table
substance,measurement,setting,value
"Insulin Glulisine TID: insulin glulisine three times daily, added to insulin glargine ± metformin (comparator arm)","HbA1c change to Week 26, LS Mean difference (SE) of Lixisenatide vs. the labelled insulin glulisine arm","[1]; ANCOVA, mITT population",0.21 (0.059) %
same,"HbA1c, Change from baseline to Week 26 (LOCF), LS Mean (SE)","[1]; ANCOVA, mITT population",−0.84 (0.053) %
same,"HbA1c, BL (end run-in) mean ± SD","[1]; BL (end run-in), mITT",7.8 ± 0.6%
same,"HbA1c, Baseline, Mean (SD)",[1]; [5],7.79 (0.60) %
same,"HbA1c, Baseline, Median",[1]; [5],7.70%
same,"HbA1c, Screening (start run-in) mean ± SD","[1]; Screening (start run-in), mITT",8.5 ± 0.8%
same,"HbA1c, Week 26 (LOCF), Mean (SD)",[1]; [6],6.96 (0.73) %
same,"HbA1c, Week 26 (LOCF), Median",[1]; [6],7.00%
same,"HbA1c, Week 26 (LOCF) mean ± SD",[1]; [7],7.0 ± 0.7%
same,"HbA1c, LS mean treatment difference (lixisenatide vs the labelled arm), co-primary endpoint","[1]; Week 26, mITT, Example 2 table",0.2^† %
same,"HbA1c, LS mean ± SE change from BL","[1]; Week 26, mITT, Example 2 table",−0.8 ± 0.1%
same,"HbA1c, Change from baseline to Week 26 (LOCF), Mean (SD)",[1]; mITT population,−0.82 (0.78) %
same,"HbA1c, Change from baseline to Week 26 (LOCF), Median",[1]; mITT population,−0.90%
same,"Body weight, Change from baseline to Week 26 (LOCF), LS Mean (SE)","[2]; ANCOVA, mITT population",1.37 (0.271) kg
same,"Body weight change to Week 26, LS Mean difference (SE) of Lixisenatide vs. the labelled insulin glulisine arm","[2]; ANCOVA, mITT population, p <.0001",−1.99 (0.305) kg
same,"Body Weight, BL mean ± SD","[2]; BL, mITT, Example 2 table",90.0 ± 17.2 kg
same,"Body weight, Baseline, Mean (SD)",[2]; [5],90.00 (17.21) kg
same,"Body weight, Baseline, Median",[2]; [5],88.70 kg
same,"Body weight, Week 26 (LOCF), Mean (SD)",[2]; [6],91.29 (17.27) kg
same,"Body weight, Week 26 (LOCF), Median",[2]; [6],90.50 kg
same,"Body Weight, Week 26 (LOCF) mean ± SD",[2]; [7],91.3 ± 17.3 kg
same,"Body Weight, LS mean ± SE change from BL","[2]; Week 26, mITT, Example 2 table",1.4 ± 0.3 kg
same,"Body Weight, LS mean treatment difference (lixisenatide vs the labelled arm)","[2]; Week 26, mITT, p < 0.0001, Example 2 table",-2.0 kg
same,"Body weight, Change from baseline to Week 26 (LOCF), Mean (SD)",[2]; mITT population,1.29 (2.80) kg
same,"Body weight, Change from baseline to Week 26 (LOCF), Median",[2]; mITT population,1.20 kg
same,"2-h PPG post test meal, BL (end run-in) mean ± SD",[3]; BL,262 ± 63 mg/dL
same,"2-h PPG post test meal, Week 26 (LOCF) mean ± SD",[3]; Week 26 (LOCF),229 ± 69 mg/dL
same,"2-h PPG post test meal, LS mean treatment difference (lixisenatide vs the labelled arm)",[3]; Week 26,-40 mg/dL
same,"2-h PPG post test meal, LS mean ± SE change from BL",[3]; Week 26,-25 ± 11 mg/dL
same,Patients with any TEAE leading to death,[4]; Safety population,2 (0.7%) n (%)
same,Patients with treatment emergent SAE: Accidental overdose,[4]; Safety population,1 (0.3%) n (%)
same,Patients with TEAE: Accidental overdose,[4]; [8],20 (6.8%) n (%)
same,Patients with TEAE: Headache,[4]; [8],12 (4.1%) n (%)
same,Patients with TEAE: Hypoglycaemia,[4]; [8],154 (52.4%) n (%)
same,Patients with TEAE: Infections and infestations (SOC),[4]; [8],81 (27.6%) n (%)
same,Patients with TEAE: Influenza,[4]; [8],14 (4.8%) n (%)
same,"Patients with TEAE: Injury, poisoning and procedural complications (SOC)",[4]; [8],28 (9.5%) n (%)
same,Patients with TEAE: Investigations (SOC),[4]; [8],92 (31.3%) n (%)
same,Patients with TEAE: Metabolism and nutrition disorders (SOC),[4]; [8],157 (53.4%) n (%)
same,Adjudicated by PSAC: Acute on chronic pancreatitis,[4]; in vivo,0 n (%)
same,Adjudicated by PSAC: Acute pancreatitis,[4]; in vivo,0 n (%)
same,Adjudicated by PSAC: Chronic pancreatitis,[4]; in vivo,0 n (%)
same,Adjudicated by PSAC: Unknown pancreatitis,[4]; in vivo,0 n (%)
same,Gastrointestinal AEs: Diarrhea,[4]; in vivo,4 (1) n (%)
same,Gastrointestinal AEs: Nausea,[4]; in vivo,3 (1) n (%)
same,Gastrointestinal AEs: Vomiting,[4]; in vivo,6 (2) n (%)
same,Patients with TEAE on the specific adverse event form for increased calcitonin (>=20 ng/L): Any,[4]; in vivo,1 (0.3%) n (%)
same,Patients with TEAE on the specific adverse event form for increased calcitonin (>=20 ng/L): Blood calcitonin increased,[4]; in vivo,1 (0.3%) n (%)
same,Patients with TEAE: Any class,[4]; in vivo,236 (80.3%) n (%)
same,Patients with TEAE: Blood glucose decreased,[4]; in vivo,82 (27.9%) n (%)
same,Patients with TEAE: Diarrhoea,[4]; in vivo,4 (1.4%) n (%)
same,Patients with TEAE: Gastrointestinal disorders (SOC),[4]; in vivo,22 (7.5%) n (%)
same,Patients with TEAE: Nasopharyngitis,[4]; in vivo,18 (6.1%) n (%)
same,Patients with TEAE: Nausea,[4]; in vivo,3 (1.0%) n (%)
same,Patients with TEAE: Nervous system disorders (SOC),[4]; in vivo,29 (9.9%) n (%)
same,Patients with TEAE: Upper respiratory tract infection,[4]; in vivo,11 (3.7%) n (%)
same,Patients with TEAE: Vomiting,[4]; in vivo,6 (2.0%) n (%)
same,Patients with any TEAE,[4]; in vivo,236 (80.3%) n (%)
same,Patients with any TEAE leading to permanent treatment discontinuation,[4]; in vivo,3 (1.0%) n (%)
same,Patients with any treatment emergent SAE,[4]; in vivo,14 (4.8%) n (%)
same,"Patients with events adjudicated as allergic reaction by ARAC: All, Any category, Any event",[4]; in vivo,1 (0.3%) n (%)
same,"Patients with events adjudicated as allergic reaction by ARAC: OTHER ALLERGIC REACTION, Rhinitis allergic",[4]; in vivo,1 (0.3%) n (%)
same,"Patients with events adjudicated as allergic reaction by ARAC: Possibly Related to IMP, Any event",[4]; in vivo,0 n (%)
same,"Patients with events adjudicated as allergic reaction by ARAC: URTICARIA (HIVES), Urticaria",[4]; in vivo,0 n (%)
same,Patients with treatment emergent SAE: Abdominal pain,[4]; in vivo,0 n (%)
same,Patients with treatment emergent SAE: Angina pectoris,[4]; in vivo,1 (0.3%) n (%)
same,Patients with treatment emergent SAE: Angina unstable,[4]; in vivo,0 n (%)
same,Patients with treatment emergent SAE: Ankle fracture,[4]; in vivo,0 n (%)
same,Patients with treatment emergent SAE: Any class,[4]; in vivo,14 (4.8%) n (%)
same,Patients with treatment emergent SAE: Atrial fibrillation,[4]; in vivo,0 n (%)
same,Patients with treatment emergent SAE: Atrioventricular block complete,[4]; in vivo,1 (0.3%) n (%)
same,Patients with treatment emergent SAE: Basal cell carcinoma,[4]; in vivo,1 (0.3%) n (%)
same,Patients with treatment emergent SAE: Cardiac disorders (SOC),[4]; in vivo,5 (1.7%) n (%)
same,Patients with treatment emergent SAE: Cardiac failure chronic,[4]; in vivo,1 (0.3%) n (%)
same,Patients with treatment emergent SAE: Cardiac failure congestive,[4]; in vivo,1 (0.3%) n (%)
same,Patients with treatment emergent SAE: Cellulitis,[4]; in vivo,1 (0.3%) n (%)
same,Patients with treatment emergent SAE: Cerebrovascular accident,[4]; in vivo,2 (0.7%) n (%)
